The record followed here is patent US7794719 (dated 2010).

Assay [1] has as its target Aβ1-40 fibers (human). The assay can be described thus: SPR.
Assay [2] has as its target Aβ1-42 fibers (human). The assay can be described thus: SPR.
The target in assay [3] is Aβ1-40 fibers (human). The assay can be described thus: SPR. This is another data set of the same source.
The target in assay [4] is Aβ1-42 fibers (human). The assay can be described thus: SPR. This is another data set of the same source.
In assay [5] the target is Aβ1-42 fibers (human). The assay can be described thus: SPR, bivalent.
Assay [6] concerns the target Aβ1-40 fibers (human). Description: SPR, bivalent.
Assay [7] addresses Aβ1-40 fibers (human). The assay can be described thus: SPR, monovalent.
The target of assay [8] is Aβ1-42 fibers (human). Description: SPR, monovalent.

B1: MS-R 7.11.H1 x 7.2.L1 IgG1 (antibody, V domains shown)
VH: QLVESGGGLVQPGGSLRLSCAASGFTFSSYAMSWVRQAPGKGLEWVSGINAAGFRTYYADSVKGRFTISRDNSKNTLYLQMNSLRAEDTAVYYCARGKGNTHKPYGYVRYFDVWGQGTLVTVSS
VL: DIVLTQSPATLSLSPGERATLSCRASQYVDRTYLAWYQQKPGQAPRLLIYGASSRATGVPARFSGSGSGTDFTLTISSLEPEDFATYYCQQIYSFPHTFGQGTKVEIKR
With B1, the Kd was 0.66 nM in the assay with Aβ1-40 fibers [1], 0.15 nM with Aβ1-42 fibers [2], 0.14 nM in the assay with Aβ1-40 fibers [3] and 0.67 nM in the assay with Aβ1-42 fibers [4].

B2: MS-R 3.6.H5 x 3.6.L2 IgG1 (antibody, V domains shown)
VH: QLVESGGGLVQPGGSLRLSCAASGFTFSSYAMSWVRQAPGKGLEWVSAISESGKTKYYADSVKGRFTISRDNSKNTLYLQMNSLRAEDTAVYYCARLTHYARYYRYFDVWGQGTLVTVSS
VL: DIVLTQSPATLSLSPGERATLSCRASQFLSRYYLAWYQQKPGQAPRLLIYGASSRATGVPARFSGSGSGTDFTLTISSLEPEDFAVYYCQQTYNYPPTFGQGTKVEIKR
For the molecule B2, the Kd with Aβ1-40 fibers [1] stood at 1.03 nM; with Aβ1-42 fibers [2], 0.2 nM; with Aβ1-40 fibers [3], 0.2 nM; in the assay with Aβ1-42 fibers [4] it was 0.95 nM.

B3: MS-R 3.6.H8 x 3.6.L2 IgG1 (antibody, V domains shown)
VH: QLVESGGGLVQPGGSLRLSCAASGFTFSSYAMSWVRQAPGKGLEWVSAISEYSKFKYYADSVKGRFTISRDNSKNTLYLQMNSLRAEDTAVYYCARLTHYARYYRYFDVWGQGTLVTVSS
VL: DIVLTQSPATLSLSPGERATLSCRASQFLSRYYLAWYQQKPGQAPRLLIYGASSRATGVPARFSGSGSGTDFTLTISSLEPEDFAVYYCQQTYNYPPTFGQGTKVEIKR
With B3, the Kd in the assay with Aβ1-42 fibers [5] came to 0.22 nM; with Aβ1-40 fibers [6], 0.22 nM; with Aβ1-40 fibers [7], 0.95 nM; in the assay with Aβ1-42 fibers [8] it was 0.82 nM.

B4: MS-R 7.9.H2 IgG1 (antibody, V domains shown)
VH: QLVESGGGLVQPGGSLRLSCAASGFTFSSYAMSWVRQAPGKGLEWVSAINADGNRKYYADSVKGRFTISRDNSKNTLYLQMNSLRAEDTAVYYCARGKGNTHKPYGYVRYFDVWGQGTLVTVSS
VL: DIVLTQSPATLSLSPGERATLSCRASQSVSSSYLAWYQQKPGQAPRLLIYGASSRATGVPARFSGSGSGTDFTLTISSLEPEDFATYYCLQIYNMPITFGQGTKVEIKR
Regarding B4, the Kd with Aβ1-40 fibers [1] is 0.42 nM; with Aβ1-42 fibers [2], 0.11 nM; with Aβ1-40 fibers [3], 0.12 nM; in the assay with Aβ1-42 fibers [4], 0.38 nM.

B5: MS-R 7.4.H2 x 7.2.L1 IgG1 (antibody, V domains shown)
VH: QLVESGGGLVQPGGSLRLSCAASGFTFSSYAMSWVRQAPGKGLEWVSAINYNGARIYYADSVKGRFTISRDNSKNTLYLQMNSLRAEDTAVYYCARGKGNTHKPYGYVRYFDVWGQGTLVTVSS
VL: DIVLTQSPATLSLSPGERATLSCRASQYVDRTYLAWYQQKPGQAPRLLIYGASSRATGVPARFSGSGSGTDFTLTISSLEPEDFATYYCQQIYSFPHTFGQGTKVEIKR
For the molecule B5, the Kd turned out to be 0.63 nM with Aβ1-40 fibers [1], 0.12 nM in the assay with Aβ1-42 fibers [2], 0.12 nM with Aβ1-40 fibers [3] and 0.56 nM in the assay with Aβ1-42 fibers [4].

B6: MS-R 7.9.H7 IgG1 (antibody, V domains shown)
VH: QVELVESGGGLVQPGGSLRLSCAASGFTFSSYAMSWVRQAPGKGLEWVSAINASGTRTYYADSVKGRFTISRDNSKNTLYLQMNSLRAEDTAVYYCARGKGNTHKPYGYVRYFDVWGQGTLVTVSS
VL: DIVLTQSPATLSLSPGERATLSCRASQSVSSSYLAWYQQKPGQAPRLLIYGASSRATGVPARFSGSGSGTDFTLTISSLEPEDFATYYCLQIYNMPITFGQGTKVEIKR
Turning to B6, the Kd came to 0.69 nM in the assay with Aβ1-40 fibers [1], 0.24 nM with Aβ1-42 fibers [2], 0.25 nM with Aβ1-40 fibers [3] and 0.7 nM in the assay with Aβ1-42 fibers [4].

B7: MS-R 7.11.H1 x 7.11.L1 IgG1 (antibody, V domains shown)
VH: QLVESGGGLVQPGGSLRLSCAASGFTFSSYAMSWVRQAPGKGLEWVSGINAAGFRTYYADSVKGRFTISRDNSKNTLYLQMNSLRAEDTAVYYCARGKGNTHKPYGYVRYFDVWGQGTLVTVSS
VL: DIVLTQSPATLSLSPGERATLSCRASQRILRIYLAWYQQKPGQAPRLLIYGASSRATGVPARFSGSGSGTDFTLTISSLEPEDFATYYCQQVYSPPHTFGQGTKVEIKR
In the case of B7, the Kd turned out to be 0.7 nM with Aβ1-40 fibers [1], 0.13 nM in the assay with Aβ1-42 fibers [2], 0.11 nM with Aβ1-40 fibers [3] and 0.7 nM with Aβ1-42 fibers [4].
